Assay results taken from patent publication US20180117147A1.

Legend:
[1] = target: human KIR2DL3 expressed on NK and T lymphocytes of KIR2DL3 transgenic C57Bl/6 mice (human) (UniProt P43628); test: in vivo receptor occupancy in KIRtgB6 mice, 10 mg/kg iv, for 8 days
[2] = target: human KIR2DL3 expressed on NK and T lymphocytes of KIR2DL3 transgenic C57Bl/6 mice (human) (UniProt P43628); test: in vivo receptor occupancy in whole blood of KIRtgB6 mice, 20 mg/kg iv, for 14 days

UniProt P43628, sequence (P43628 22-341): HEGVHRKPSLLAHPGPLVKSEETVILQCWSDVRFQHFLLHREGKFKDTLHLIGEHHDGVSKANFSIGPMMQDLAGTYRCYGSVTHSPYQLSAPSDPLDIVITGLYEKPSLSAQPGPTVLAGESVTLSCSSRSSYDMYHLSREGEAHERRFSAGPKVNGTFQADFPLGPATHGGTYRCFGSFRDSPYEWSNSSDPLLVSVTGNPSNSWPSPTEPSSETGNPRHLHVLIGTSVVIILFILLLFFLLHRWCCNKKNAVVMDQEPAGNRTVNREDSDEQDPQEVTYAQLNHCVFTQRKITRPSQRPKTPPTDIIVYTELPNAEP

## Anti-KIR antibody clone GL183
[1]
  KIR receptor occupancy: > 90%
[2]
  KIR receptor occupancy: > 90%
